Measured values from PMC314469, “Protein Interaction Networks by Proteome Peptide Scanning” (PLoS Biology, 2004).

T1: Myo5 SH3 (MYO5_YEAST), Q04439
T1 chain: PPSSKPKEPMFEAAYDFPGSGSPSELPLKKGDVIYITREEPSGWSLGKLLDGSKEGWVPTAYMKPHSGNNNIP

T2: Yfr024 SH3 (LSB3_YEAST), P43603
T2 chain: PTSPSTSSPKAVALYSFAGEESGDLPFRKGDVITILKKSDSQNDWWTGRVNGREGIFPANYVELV

T3: Rvs167 SH3 (RV167_YEAST), P39743
T3 chain: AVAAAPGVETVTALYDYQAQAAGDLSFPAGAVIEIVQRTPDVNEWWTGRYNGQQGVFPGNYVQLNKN

T4: Boi1 SH3 (BOI1_YEAST), P38041
T4 chain: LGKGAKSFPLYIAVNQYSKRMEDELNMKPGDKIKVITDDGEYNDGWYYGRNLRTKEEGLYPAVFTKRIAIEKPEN

T5: Boi2 SH3 (BOI2_YEAST), P39969
T5 chain: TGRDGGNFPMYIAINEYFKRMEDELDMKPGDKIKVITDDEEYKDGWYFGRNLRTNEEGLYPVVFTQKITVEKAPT

T6: Yhr016c SH3 (YSC84_YEAST), P32793
T6 chain: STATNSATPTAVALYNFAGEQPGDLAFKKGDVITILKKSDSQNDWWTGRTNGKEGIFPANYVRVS


How the values were obtained:
Experiment in all cases: SPOT array
[1] = molecular target: T1, Myo5 SH3 (MYO5_YEAST), Q04439
[2] = molecular target: T2, Yfr024 SH3 (LSB3_YEAST), P43603
[3] = molecular target: Sho1 SH3 (SHO1_YEAST), P40073
[4] = molecular target: T3, Rvs167 SH3 (RV167_YEAST), P39743
[5] = molecular target: T4, Boi1 SH3 (BOI1_YEAST), P38041
[6] = molecular target: T5, Boi2 SH3 (BOI2_YEAST), P39969
[7] = molecular target: T6, Yhr016c SH3 (YSC84_YEAST), P32793

Sequence of Sho1 SH3 (SHO1_YEAST), P40073 (P40073 295-366): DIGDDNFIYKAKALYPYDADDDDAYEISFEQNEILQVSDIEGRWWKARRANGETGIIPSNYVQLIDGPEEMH

Binder	normalised SPOT signal, Boehringer light units (BLU); mean over the file's lines of this peptide [1]	normalised SPOT signal, Boehringer light units (BLU); mean over the file's lines of this peptide [2]	normalised SPOT signal, Boehringer light units (BLU); mean over the file's lines of this peptide [3]	normalised SPOT signal, Boehringer light units (BLU); mean over the file's lines of this peptide [4]	normalised SPOT signal, Boehringer light units (BLU); mean over the file's lines of this peptide [5]	normalised SPOT signal, Boehringer light units (BLU); mean over the file's lines of this peptide [6]	normalised SPOT signal, Boehringer light units (BLU); mean over the file's lines of this peptide [7]
YKNRKNLPTIPIRL [YGL085W 139-152]	961	2960	28200	2750	12400	48.9	538
YPNGRTLPPVPTQV [YER064C 178-191]	172	1460	17400	922	-0	18.3	505
YSTNRGIPARPSKD [YPL073C 79-92]	271	17300	179	8430	534	107	5100
YSYLRLLPWWPSLA [YJL083W 456-469]	188	94.4	138	115	94.5	54.3	99.5
YVKERRPPPPPPLL [YLR425W 99-112]	15900	330	63.5	163	17.5	17.8	32.3
YVNAKLDPSLPSQY [YDR147W 90-103]	97.1	91.6	29.3	41.1	71.4	10.8	17.8
YVNPRNLPSVPNGL [YLR418C 264-277]	180	952	2350	490	174	59.5	765
YVVKKNFPVSPNYT [YMR015C 408-421]	194	163	332	33.5	234	28.9	39.5
YVYGRQDPKKPFFT [YNL137C 410-423]	345	159	118	201	1330	23.2	32.8
YWGKKFEPERPFEF [YJR137C 1187-1200]	385	1160	460	350	678	266	324
YYYYKHYPNMPPIN [YMR313C 453-466]	288	391	59.1	310	227	273	253
AALVKFVPSKPMSV [YBR118W 397-410]	281	184	32.5	106	107	79.2	55.1
ADDLKYIPPIPQDF [YOR264W 26-39]	86.7	6	59.5	69.2	133	15.8	16.1
